# Residue numbers refer to the chain shown, from its start. In names and notes the source's numbering stands.
# B1: <IGF-1R> IgG1 knob wt, hole H310A, H433A, Y436A (antibody)
# light: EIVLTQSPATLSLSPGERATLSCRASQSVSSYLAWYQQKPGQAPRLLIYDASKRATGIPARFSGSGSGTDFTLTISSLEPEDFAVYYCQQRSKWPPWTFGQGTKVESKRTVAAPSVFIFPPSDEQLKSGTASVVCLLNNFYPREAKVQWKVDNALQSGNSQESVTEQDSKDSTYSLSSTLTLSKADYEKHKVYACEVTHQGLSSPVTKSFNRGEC
# heavy 1: not shown
# heavy 2: QVELVESGGGVVQPGRSQRLSCAASGFTFSSYGMHWVRQAPGKGLEWVAIIWFDGSSTYYADSVRGRFTISRDNSKNTLYLQMNSLRAEDTAVYFCARELGRRYFDLWGRGTLVSVSSASTKGPSVFPLAPSSKSTSGGTAALGCLVKDYFPEPVTVSWNSGALTSGVHTFPAVLQSSGLYSLSSVVTVPSSSLGTQTYICNVNHKPSNTKVDKKVEPKSCDKTHTCPPCPAPELLGGPSVFLFPPKPKDTLMISRTPEVTCVVVDVSHEDPEVKFNWYVDGVEVHNAKTKPREEQYNSTYRVVSVLTVLAQDWLNGKEYKCKVSNKALPAPIEKTISKAKGQPREPQVCTLPPSRDELTKNQVSLSCAVKGFYPSDIAVEWESNGQPENNYKTTPPVLDSDGSFFLVSKLTVDKSRWQQGNVFSCSVMHEALANHATQKSLSLSPGK
# notes: also called IGF-1R 0035; anti-IGF-1R antibody (knobs-into-holes), one chain with H310A/H433A/Y436A
# B2: <IGF-1R> IgG1 knob wt, hole L251D, L314D, L432D (antibody)
# light: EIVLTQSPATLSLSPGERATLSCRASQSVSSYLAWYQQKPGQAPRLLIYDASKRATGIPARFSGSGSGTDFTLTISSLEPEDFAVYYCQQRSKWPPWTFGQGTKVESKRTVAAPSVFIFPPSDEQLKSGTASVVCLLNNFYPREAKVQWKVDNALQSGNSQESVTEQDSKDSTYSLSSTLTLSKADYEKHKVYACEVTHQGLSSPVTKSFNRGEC
# heavy 1: not shown
# heavy 2: B1 heavy 2 with L252D, A311H, L315D, L433D, A434H, A437Y
# notes: T0033 lists L234A/L235A/P329G for IGF-1R 0037; also called IGF-1R 0037; anti-IGF-1R antibody (knobs-into-holes), one chain with L251D/L314D/L432D
# B3: <IgF-1R> IgG1 knob wt, hole I253A, H310A, H435A (antibody)
# light: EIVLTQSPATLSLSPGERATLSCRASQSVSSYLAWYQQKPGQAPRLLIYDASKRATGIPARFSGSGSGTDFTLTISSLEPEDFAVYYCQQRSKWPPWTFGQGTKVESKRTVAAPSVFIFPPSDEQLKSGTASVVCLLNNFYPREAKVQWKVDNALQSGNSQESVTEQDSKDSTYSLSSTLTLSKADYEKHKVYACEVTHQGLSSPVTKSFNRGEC
# heavy 1: not shown
# heavy 2: B1 heavy 2 with I254A, A434H, H436A, A437Y
# notes: T0033 lists L234A/L235A/P329G for IGF-1R 0034; also called IGF-1R 0034; anti-IGF-1R antibody (knobs-into-holes), one chain with I253A/H310A/H435A
# B4: <IGF-1R> IgG1 knob wt, hole M252Y, S254T, T256E (antibody)
# light: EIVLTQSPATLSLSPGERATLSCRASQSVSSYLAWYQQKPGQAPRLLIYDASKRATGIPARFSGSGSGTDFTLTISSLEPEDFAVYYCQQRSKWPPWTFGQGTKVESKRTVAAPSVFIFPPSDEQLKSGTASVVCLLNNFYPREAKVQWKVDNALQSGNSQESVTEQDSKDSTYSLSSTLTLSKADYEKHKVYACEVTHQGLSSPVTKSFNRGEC
# heavy 1: not shown
# heavy 2: B1 heavy 2 with M253Y, S255T, T257E, A311H, A434H, A437Y
# notes: T0033 lists L234A/L235A/P329G for IGF-1R 0036; also called IGF-1R 0036; anti-IGF-1R antibody (knobs-into-holes), one chain with M252Y/S254T/T256E
# B5: <IGF-1R> IgG1 with M252Y, S254T, T256E (antibody)
# light: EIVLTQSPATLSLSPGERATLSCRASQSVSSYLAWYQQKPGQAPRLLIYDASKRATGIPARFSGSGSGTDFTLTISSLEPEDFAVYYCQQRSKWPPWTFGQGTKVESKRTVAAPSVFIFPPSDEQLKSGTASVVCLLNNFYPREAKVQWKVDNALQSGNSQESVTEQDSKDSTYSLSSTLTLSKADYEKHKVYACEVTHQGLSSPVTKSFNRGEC
# heavy: QVELVESGGGVVQPGRSQRLSCAASGFTFSSYGMHWVRQAPGKGLEWVAIIWFDGSSTYYADSVRGRFTISRDNSKNTLYLQMNSLRAEDTAVYFCARELGRRYFDLWGRGTLVSVSSASTKGPSVFPLAPSSKSTSGGTAALGCLVKDYFPEPVTVSWNSGALTSGVHTFPAVLQSSGLYSLSSVVTVPSSSLGTQTYICNVNHKPSNTKVDKKVEPKSCDKTHTCPPCPAPELLGGPSVFLFPPKPKDTLYITREPEVTCVVVDVSHEDPEVKFNWYVDGVEVHNAKTKPREEQYNSTYRVVSVLTVLHQDWLNGKEYKCKVSNKALPAPIEKTISKAKGQPREPQVYTLPPSRDELTKNQVSLTCLVKGFYPSDIAVEWESNGQPENNYKTTPPVLDSDGSFFLYSKLTVDKSRWQQGNVFSCSVMHEALHNHYTQKSLSLSPG
# notes: also called YTE-mutant of anti-IGF-1R antibody
# What was measured:
# [1] = biological target: T1, human neonatal Fc-receptor (FcRn), soluble extracellular domain with His-Avi Tag, co-expressed with … (human, UniProt P55899 24-297; P61769 21-119, biotinylated (Avi Tag) for the affinity column); assay: FcRn affinity chromatography
# T1 construct: SPR: amine-coupled to a CM5 chip (400 RU), pH 6.0; also called huFcRn; FcRn/beta2-microglobulin
# T1 sequence (P55899 24-297 limits assumed, chain 1 of 2): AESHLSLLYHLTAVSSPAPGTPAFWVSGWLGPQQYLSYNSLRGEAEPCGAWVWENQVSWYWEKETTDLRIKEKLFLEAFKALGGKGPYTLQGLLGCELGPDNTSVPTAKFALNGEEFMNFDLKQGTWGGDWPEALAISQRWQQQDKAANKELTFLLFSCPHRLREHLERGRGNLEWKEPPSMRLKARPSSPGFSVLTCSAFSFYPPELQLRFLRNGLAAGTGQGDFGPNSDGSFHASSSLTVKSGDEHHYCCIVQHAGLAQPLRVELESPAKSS
# T1 sequence (P61769 21-119 limits assumed, chain 2 of 2): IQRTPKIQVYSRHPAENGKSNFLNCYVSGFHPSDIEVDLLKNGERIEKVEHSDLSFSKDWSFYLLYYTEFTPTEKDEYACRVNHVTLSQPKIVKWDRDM
# Protocol: Antibody samples containing 50 to 100 μg of protein were adjusted to pH 5.5 and applied to the FcRn column using ÄKTA explorer 10 XT or Dionex Summit (Dionex, Idstein, Germany). The column with 5 cm bed height was then washed with 5-10 column volumes of equilibration buffer 20 mM MES, 150 mM NaCl, pH 5.5. […] For complete elution of modified antibodies, the pH was increased in the gradient up to pH 8.8. The experiments were carried out at room temperature. The elution profile was obtained by continuous measurement of the absorbance at 280 nm. The time taken for an analyte peak, X, to reach the detector after sample injection was called the retention time.
# [2] = biological target: T1, human neonatal Fc-receptor (FcRn), …; assay: SPR (BIAcore T100), FcRn immobilized on CM5 chip by amine coupling (400 RU), 200 nM antibody injected, PBS 0.05% Tween-20 pH 6.0, room temperature
# Protocol: The binding properties of wild-type antibody and the mutants to FcRn were analyzed by surface plasmon resonance (SPR) technology using a BIAcore T100 instrument (BIAcore AB, Uppsala, Sweden). […] In the current assay, the FcRn receptor was immobilized onto a BIAcore CM5-biosensor chip (GE Healthcare Bioscience, Uppsala, Sweden) via amine coupling to a level of 400 Response units (RU). The assay was carried out at room temperature with PBS, 0.05% Tween-20TM pH 6.0 (GE Healthcare Bioscience) as running and dilution buffer. 200 nM of antibody samples were injected at a flow rate of 50 μL/min at room temperature. Association time was 180 seconds, dissociation phase took 360 seconds. Regeneration of the chip surface was reached by a short injection of HBS-P, pH 8.0. Evaluation of SPR-data was performed by comparison of the biological response signal height at 180 seconds after injection and at 300 seconds after injection. The corresponding parameters are the RU max level (180 seconds after injection) and late stability (300 seconds after end of injection).
Binder,retention time on FcRn affinity column [1],binding result [2]
B1,42.4 min,
B2,40.9 min,
B3,42 min,
B4,57.6 min,
B5,,binds
